Data on one substance can be found in patent US20260103488A1.

The experiment addresses Lck(h) (lymphocyte-specific protein tyrosine kinase) (human) (UniProt P06239). Put plainly: cell-based or functional assay.

Lck(h) (lymphocyte-specific protein tyrosine kinase) (human), sequence (P06239 whole entry): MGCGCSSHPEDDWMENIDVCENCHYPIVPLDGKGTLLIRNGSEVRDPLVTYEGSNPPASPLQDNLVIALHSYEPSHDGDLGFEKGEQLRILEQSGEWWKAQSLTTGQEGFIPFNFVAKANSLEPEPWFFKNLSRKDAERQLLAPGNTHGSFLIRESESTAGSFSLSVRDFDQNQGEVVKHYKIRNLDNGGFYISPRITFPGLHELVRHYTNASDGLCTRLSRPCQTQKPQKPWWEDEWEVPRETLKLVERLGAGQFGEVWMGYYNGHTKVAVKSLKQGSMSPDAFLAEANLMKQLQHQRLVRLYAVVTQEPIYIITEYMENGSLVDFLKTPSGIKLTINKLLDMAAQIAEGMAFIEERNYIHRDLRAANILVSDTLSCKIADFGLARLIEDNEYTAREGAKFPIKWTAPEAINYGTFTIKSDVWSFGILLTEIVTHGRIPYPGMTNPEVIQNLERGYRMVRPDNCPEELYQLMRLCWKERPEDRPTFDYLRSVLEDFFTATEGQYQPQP

Turning to rskaknplyrrrrrrrrr (IKD14800) (peptide), the Lck activity, percentage relative to control, in vitro kinase assay, peptide 1 µM (% increase in Lck activity) came out at 490.
